Laboratory results from the supplement of paper PMC10567573.

B1: RHOBTB2 (parent)
chain: LYTGELDENERDLMHIAHIAELLE
B2: LRRC45 (parent)
chain: DLSAANEKNLLLQNQVDELERKFR

Variants of: B1
Experiment: protein stability index of a GFP-peptide fusion (GPS, HEK-293T) (PSI 1-6); higher = more stable
Conditions: c terminus: a fixed tail appended
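Further: lentivirally expressed fusions sorted by FACS into six bins by GFP to DsRed ratio, PSI derived from sequencing read proportions per bin multiplied by bin number.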

Protein stability index: each site, then its substitutions
D7: K 2.33; M 1.97; S 2.48; A 2.48; T 2.16; I 1.77; W 1.64; L 3.31; H 1.62
G4: R 2.29; N 2.05; K 1.89; I 2.56; P 2.46; D 2.53; M 1.77; L 1.76; F 1.93
D12: Q 2.4; L 3.07; T 2.43; P 2.43; I 3.03; A 2.01; K 3.02; Y 1.66; C 2.53
L1: W 2.43; S 2.52; C 2.67; I 2; R 2.93; A 2.62; E 2.72; Q 3.08; F 3.02
R11: E 2.44; S 2.5; M 1.96; C 2.66; I 2.57; A 2.27; G 3.32; Y 2.42; F 1.83; T 2.14; D 2.9; Q 1.96
E24: K 2.12; H 2.21; A 3.44; T 2.3; Y 2.04; Q 2.38; W 1.91; D 2.94; P 3.33; C 2.04; V 1.97
L23: F 2.41; H 3.97; C 3.58; N 4.01; W 2.55
E5: P 2.52; R 3.45; T 2.75; L 2.02; S 2.54; Y 1.9; K 2.75; M 2.1; Q 2.22; I 1.65
M14: G 3.36; K 2.89; T 3.04; H 3.1; L 2.58; I 2.84; Q 2.39; R 2.36
H18: C 2.41; F 1.72; E 3.32; T 1.95; G 3.76; L 1.23; M 2.71; Y 1.59; W 2.11; K 3.54; P 2.88; V 2.05; Q 1.82; D 2.87
I19: W 2.28; Q 3.37; G 4.45; H 3.62; S 3.26; M 2.52; N 4.47
L22: W 2.52; S 3.66; N 3.5; V 2.72; G 3.6; I 2.56
Y2: A 2.73; S 3.34; E 3.49; Q 3.01; R 3.21; V 3.45; M 2.73; D 3.68; C 2.04; F 2.78
A17: I 2.1; C 1.77; G 2.77; R 2.7; H 3.58; Q 2.95
N9: Y 1.64; S 2.19; L 1.51; E 3.15; I 3.37; P 2.03; K 2.68; C 1.85; T 2.71; H 2.54; D 2.59; G 2.82
A20: P 3.79; E 3.85; G 3.3; D 3.34; S 3.08; T 2.76; N 3.74
T3: Y 2.08; L 1.94; E 2.98; A 2.58; G 1.91; N 2.25; H 2.08; V 2.21; D 3; P 2.14; S 2.61
E10: R 2.58; M 1.68; V 1.89; L 2.24; W 2.41; Q 2.61; K 1.94; G 2.02; T 2.66; H 2.05
L6: D 3.27; F 2.46; G 3.11; C 2.91; Y 2.6; P 2.95; I 2.64; M 2.56; K 3.31; W 2.44
I16: E 4.85; S 3.9; M 2.51; D 4.12; L 2.09; V 2.76; P 4.15; K 4.05; R 4.43
E8: L 1.57; S 2.29; F 1.96; V 2.9; K 2.28; D 3.23; G 1.91; I 1.62
E21: K 2.07; Q 2.32; W 2.1; I 1.77; D 2.77; S 1.7; R 1.85; N 2.48; C 2.37
L13: R 3.06; W 2.65; D 3.12; C 3.45; A 3.08; S 3.12; V 3.22; N 3.28; H 3.58; M 2.92; T 3.34
H15: K 2.21; F 2.46; M 1.86; Y 1.67; S 2.54; V 1.62; C 2.13; W 2.47; R 2.42; G 2.78

Variants of: B2
Experiment: as above
Conditions: c terminus: a fixed tail appended

Protein stability index: each site, then its substitutions
E7: T 3.69; S 3.74; M 3.14; P 4.31; V 3.46; D 4.73; F 2.88; H 3.94; N 3.01
L2: A 5.21; K 5.06; V 3.89
N14: P 3.69; M 3.54; H 3.62; W 3.63; E 4.19; V 3.62
V16: Y 3.6; K 4.42; M 3.79; H 4.08; F 3.38
K8: V 3.85; R 4.15; L 3.6
R21: L 3.74; I 3.55; C 3.74; W 3.63; M 3.97; K 3.93
R24: K 4.66; H 4.31; W 3.52; C 4.36; S 4.25; A 4.69
D17: Q 3.66; L 3.24; V 3.4
E20: T 3.43; G 3.22; K 3.2; M 2.81; Q 3.47
E18: C 3.4; V 3.44
A4: Q 3.82; D 4.67; H 4.01; G 3.77; P 4.11
A5: T 3.91; C 4.42; S 4.39; M 3.62
N9: S 4.63; A 4.77; F 3.98
L11: K 4.57
K22: F 3; W 3.14; N 4.18; G 3.62
L12: W 3.48; P 4.18; K 3.77; F 4.09; T 3.64; I 4.25; R 3.98; A 4.37; G 4.03
L19: H 4.12; A 4.58; D 5.16; Y 3.48; C 4.16
S3: G 4.54; Q 4.04; L 3.51; Y 3.58; H 4.13; W 3.18
N6: Q 4.73; Y 3.77; R 4.61; H 4.27; F 3.62
Q13: R 3.74; Y 3.42; D 4.63; S 3.98; N 3.68; F 3.44; W 3.3
L10: S 4.45; C 4.07
F23: D 5; E 5.34; L 4.33; S 4.36
D1: V 4.34; C 3.73; E 3.61
Q15: D 4.4; T 3.35; R 3.5; M 3.77; A 3.57; C 3.84
